Measured values as given in the nanobody polyreactivity screen of Harvey et al. (2022).

Assay: yeast display, Sf9 membrane polyspecificity reagent, FACS + sequencing; frameworks hold sequencing errors
Method in brief: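 A synthetic nanobody library was expressed on Saccharomyces cerevisiae BJ5465 by galactose induction for 36–48 hours. The library was stained for 1 hour at 4 °C with 10% biotinylated, detergent-solubilized Sf9 membrane reagent and enriched with streptavidin microbeads before FACS. Low and high (top ~1%) gates were set on anti-HA fluorescence for expression and streptavidin fluorescence for reagent binding, and each polyreactivity label reflects the gate of origin.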

Row | Sequence | polyreactivity (PSR sort gate)
1 | QVQLVESGGGLVQAGVSLRLSCAASGRTFVHYTMGWSRQSPGKERELVATISTSGGSTSYADSVKGRFTISRDNAKNTVYLQMNSLKPEDTAVYYCAARWYFPDRVKYDYWGQGTQVSVSS | low polyreactivity
2 | QVQLVESGGGLVQAGGSLPLSCAASGSNFWRNALGWYRQAPGKERELVAAISGSGGSTYYADSVKGRFTISRDNAKNTVYLQMNSLKPEDTAVYYSYVSRMDYWGQGTQVTVSS | high polyreactivity
3 | QVQLVESGGGLVKAGGSLRLSRAASGSIFPRYAMGWNRQAPGKERELVAAITSSAASTYYADSVKGRFTISRDNAKNTVYLQMNSLKPEDSAVYYCAASGPWSYWYYYWGQGTQVTVSS | low polyreactivity
4 | QVQLVESGGGLVQAGGSLRLSCAASGRTFGYYAMGWSRQAPGKERELVAAITYSGGRTRYADSVKGRFTISRDNAKNTVYLQMNSLKPEDTAVYYCNRVIPTQSLRDYYWGQGTQVTVSS | high polyreactivity
5 | QVQLVESGGGLVQAGGSLSLSCAASGSIVAYNAMGWYRQAPGKERELVAAITDSGGSTFYADSVKGRFTISRDNAKNTVYLQMNSLKPEDTAVYYCATSGDRLVWGQGTQVTVSS | low polyreactivity
6 | QVQLVESGGGLVQAGGSLRLSCAASGRTFVGYVMGWYRQAPGKERDLVAAITSRGGRTYYADSLKGRFTISRDNAKNTVYLQMNSLNPEDTGVYYCYAAHGSRAFFGGYDYWGQGTEVTVSS | high polyreactivity
7 | QVQLVESGGGLVQAGGSLRLSCAASGRTFYRYAMGWYRQAPGKERELVAAIRWSGGSTYYADSVKGRFTISRDNAKNTVYLQMNSLKPEDTAVYYCAKDTFRGYSPVKYDFWGQGTQVTVSS | low polyreactivity
8 | QVQLVESGGGLVQAGGSLRLSCAASGSIFQPYAMGWYRQAPGKERELVAAITNGGSTYYADSVKGRFTISRDNAKNTVYLQMNSLKPEDTAVYYCATDVLLYFEPVNLDYWGQGTQVTVSS | low polyreactivity
9 | QVQLVESGGGLVQAGGSLRLSCAASGSTFAANAMGWSRPAPGKERELVAAITSSGGSTYYADSVKGRFTISRDYAKNTVYLQMNSLKPEDTAVYYCNKDIERYVRIYDSWGQGTQVTVSS | low polyreactivity
10 | QVQLVESGGGLVQAGGSLRLSCAATGRNFVYNAMGWYRQAPGKERELVAAITWGGGSTYYADSVKGRFTISRDYAKNTVYLQMNSLKPEDTAVYYCAARGGSYPQDHSPYYEYDYWGQGTQVTVSS | low polyreactivity
11 | QVQLVESGGGLVQAGGSLRLSCAASGFTFYRNTMGWYRQAPGKERELVAAISTRDGSTYYADSVKGRFTISRDNAKYTVYLPMNSLKPEDTAVYYCAVLTYRGRFEYWGQGTQVTVSS | high polyreactivity
12 | QVQLVESGGGLVQAGGSLRLSCAASGSIIHVNAMGCYRQAPGKERELVAGISDGGSTYYADSVKGRFTISRDNAKYTVYLQMNSLKPEDTAVYYCAAESEQWYSYVLSYDWEYDYWGQGTQVTVSS | low polyreactivity
13 | QVQLVESGGGLVQAGGSLRLSCAASGGIFDRYAMGWYRQAPGKERELVAAITSGGSTNYADSVKGRFTISRDNAKNTVYLQMNSLKPEDNAVYYCAAVESSYEAWYTYYYWGQGTQVTVSS | low polyreactivity
14 | QVQLVESGGGIDQAGGSLRLSCAASGFIFTNYAMGWYRQAPGKERELVAAITRRGGGTYYADSVKGRFTISRDNAKKTVYVQMNSLKPEDTAVYYCAKYSRLVTANDYDYWGQGTQVTVSS | high polyreactivity
15 | QVQLVESGGGLVQAGGSLRLSCDASGITFGNYAMGWYRPAPGKDRELVAAITGSGGRTYYADSVKGRFTISRDNAKNTVYLQMNSLKPEDTAVYYCNRRQYGRKKQYDYWGQGTQVTVSS | high polyreactivity
16 | QVQLVESGGGLVQAGGSLRLSCAASGFTFIQYAMGWYRQAPGKERELVAAITRSGGRTYYADSVKGRFTISRDNAKNTVFLQMNSLKPEDTAVYYCNADRTRGYQRYDYWGQGTQETVSS | high polyreactivity
17 | QVLLVESGGGLVQAGGSLRLSCAASGRTFSINAMGWDRQAPGKERELVAAITKRRSTYYADSVKGRFTISRDNAKNSVYLQMNSLKPEDTAVYYCNARYRGRVYDRFGYWGQGTQVTVSS | high polyreactivity
18 | QVQLVESGGGLVQAGGSLRLSCAASGSIFLRNAMGWYRQAPGKERELVAAITNSSGSTYYADSVKGRFTISRDNAKNTVYLQMNSLKPEDTAVYYCAATSRSSRRYYYWGQGTQVTVSS | high polyreactivity
19 | QVQLVESGGGLVQAGGSLRLSCAASGITFYRNAMGWYRQAPGKERELVAAISRRGGITRYADSVKGRFTISRDNAKNTVYLQMNSLKPEDTAVYYCAVAVNGVSRIKYYYWGQGTQVTVSS | high polyreactivity
20 | QVQLVESGGGLVQAGGSLRLSCAASGSTFRYNPMGWYRQAPGNERELVAAISSGGYTNYADSVKGRFTISRDNAKNTVYLQMNSLKPEDTAVYYCAARYYPWKVNRFSYWYDYWGQGTLVTVSS | high polyreactivity
21 | QVQLVESGGGLVQAGGSLRLSCAASGLIFSGYAMGWYRQAPGKERELVAAISTRGGSTFYADSVKGRFTISRDNAKNTVYLQMNSLKPEDTAVYYCAADGAGGYYYWGQGTQVTVSS | high polyreactivity
22 | QVQLVESGGGLVQAGASLRLSCAASGFTFYSYDMGWYRQAPGKERELVAVITERGSSTYYADSVKGRFTISRDNAKNTVYLQMNSLKPEDTAVYYCAAYSEYYGVYYWGQGTLVTVSS | low polyreactivity

Row | Sequence | polyreactivity (PSR sort gate)
23 | QVQLVESGGGLLQAGGSLPLSCAASGRIFIKYAMGWYRPAPGKERELVAAISQSGGSTYYADSVKGRFTISRDNAKNTVYLQMNSLKPEDTAVYYCAAGNRRLGGRLYRYYYWGQGPQVTVSS | high polyreactivity
24 | QVQLVESGGGLVQEGGSLRLSCAASASTLYKYAMGWYRQAPGKERELVAAISWSGSSTYYADSVKGRFTISRDNAKNTVYLQMNSLKPEDTAVYYCNARWQEPLKYDYWGQGTQVTVSS | low polyreactivity
25 | QVQLVESGGGLVQAGGSLRLSCAASGLTFRYYSMGWYSQAPGKERELVASISWSGASTYYADSVKGRFTISRDNAKNTVYLQMNSLKPEDTGVYYCNAGYYGSYDYWGQGTQVTVSS | high polyreactivity
26 | QVQLVESGGGLVQAGGSLRLSCAASGGMLPKNAMGWYRQAPGKVRELVAGISTRGTSTYYADSVKGRFTISRDNAKNTVYLQMNSLKPEDTAVYYCATSRDYIGYDYWGQGTQVTVSS | low polyreactivity
27 | QVQLVESGGGLVQAGGSLRLSCAASGRIFGYYARGWYRQAPGKEREFVAGITQRTDSTYYADSVKGRFTISRDNAKNTVYLQMNSLKPEDTAVYFCAARGYGGYHWGYYWGQGTQVTVSS | high polyreactivity
28 | QVQLVESGGGLVQAGGSLRLSCAASGRTSGINAMGWYRQAPGKERELVAAISSGGRTYYADSVKGRFTISRDNAKNTVYLQMNSLKPEDTAVYYCAAVIHWSLYRRMEYWGQGTQVTVSS | high polyreactivity
29 | QVQLVESGGGLVQAGGSLRLSCAASGRTFYGYAMGWYRQAPGKERELVAAISWTGGRTYYADSVKGRFTISRDNAKNTVYLQMNSLKPEDTAVYYCNARRRGDSGDGYIYGYWGQGTQVTVSS | high polyreactivity
30 | QVQLVESGGGLVQAGGSLRLSCAASGFIFGDKAMGWYRQAPGKERELVAAINSGSRTSYADSVKGRFTISRDNAKNTVYLQMNSLNPEDTAVYYCAAESVSSGDNASRYDYWGQGTQVTVSS | low polyreactivity
31 | QDQLVESGGGLVQAGGSLRLSCAASGSTVSYYTMGWYRQAPGKERELVAAINGSGGSTYYADSVKGRFTISRDNAKNNVYLQMNSMKPEDTAVYYCAADIKRVLDIPMYYWGQGTQVTVSS | low polyreactivity
32 | QVLLVESGGGLVQAGGSLRLSCAASGRIFYSNVMGWYIQAPGKERELVAAISGRTGGTYYADSVKGRFTISRDNAKNTVYLQMNSLKPEDTAVYYCAARVIYYYGSGPYDYWGQGTQVTVSS | low polyreactivity
33 | QVQLVESGGGLVQAGGTLRLSCAPSGHIVFYYTKGWYRQAPGKERELVAGITIGGSTNYADSVKGRFTISRDNAKNTVYLQMNSLKPEDTAVYYCNVVKYVYIYSYWEYYYWGQGTQVTGSS | low polyreactivity
34 | QVQLVESGGGLVQAGGSLRLSCAASGRIFAWNDMGWYRQAPGKERELVAAITSGGSTYYADSVKGRFTISRDNAKNTVYLQMNSLKPEDTAVYYCAAGSAYYSQRYFAYGYDSWGQGTQVTVSS | low polyreactivity
35 | QVQLVESGGGLVQAGGSLRLSCAASGYIFSRYAMGWYRPAPGKERELVAAITRSGTRTYYADSVKGRFTISRDNAKNTVYLQMNSLKPEDTAVYYCAKQYLYSSGFDYWGQGTQVTVSS | high polyreactivity
36 | QVQLVESGGGLVQAGGSLRLSCAASGRIYSWYAMGWYRQAPGKERELVAVISRGVSTYYADSVKGRFTISRDNAKNTVYLQMNSLKPEDTAVYYCAAYSGGRYYYWGQGTQVTVSS | low polyreactivity
37 | QVQLVESGGGLVQAGGSLRLSCAASGRTLRRYAMGSYREAPGKERELVATISGRGGSTYYADSVMGRFTISRDNAKNTVYLQMNSLKPEYTAVYYCNRVTSRVSGRYSYDYWGQGTQVTVSS | high polyreactivity
38 | QVQLQESGGGLVRAGGSLRMSCAASGNIFDADIMGWYRQAPGKERELVASITDGRRTNYADSVKGRYTISRDSEKNTVYLQMNSLKPEDTAVYYCAAIAYPVVPTYFDYDSDYFHWGQGTQVTVRS | high polyreactivity
39 | QDQLVESGGGLVQAGGRLRLSCAASGSIFVRNFMGWYRQAPGKERELVPAISWNGGSTFYADSVKWRFTISRDNAKNTVYLQMNSLKPEETAVYYCATRYGRHGWFYLYDYWGQGTQVTVSS | low polyreactivity
40 | QVQLVESGGGLVQAGGSLRLSCAASGRTFLGNAMGWYRQAPGKERELVAAIRYSGGRTYYADSVKGRFTISRDNANNTVYLQMNSLKPEDTAVYYCAAELDGSNYPLDYWGQGTKVTVSS | low polyreactivity
41 | QVQLVESGGGLVQAGGRLRLSCAASGFIFGAYAMGWYRQAPGKERELVAAINWSGGSTYYADSVKGRFTISRDNAKNTVYLQMNSLKPEDTAVYYCNARYNGFYAYPRHDYWGQGTQVTVSS | low polyreactivity
42 | QVQLVESGGGLVQAGGSLRLSCAATGRTFSIYAMGWYRQAPGKERELVARIRGGGSTNYADSVKGRFTISRDNAKNTVYLQMNSLKPEDTAVYYCATVYWRYGAHSYRYYYWGQGTQVTVSS | high polyreactivity
43 | QVQLVESGGGLVQAGGSLRLSCAASGSIFASNSMGWYRQEPGQERELVAAINSGDSTNYADTVKGRFTISRDTAKNTVYLQMNSLKPEDTAVYYCARGLEERYDYWGQRTQVTVSS | low polyreactivity
